Measured values reported in publication PMC3949604 (Biochemical pharmacology, 2014).

Target: baculovirus expressed human Arnt (aryl hydrocarbon receptor nuclear translocator) (human, UniProt P27540 1-789)
Test: co-IP

Sequence of baculovirus expressed human Arnt (aryl hydrocarbon receptor nuclear translocator) (P27540 whole entry): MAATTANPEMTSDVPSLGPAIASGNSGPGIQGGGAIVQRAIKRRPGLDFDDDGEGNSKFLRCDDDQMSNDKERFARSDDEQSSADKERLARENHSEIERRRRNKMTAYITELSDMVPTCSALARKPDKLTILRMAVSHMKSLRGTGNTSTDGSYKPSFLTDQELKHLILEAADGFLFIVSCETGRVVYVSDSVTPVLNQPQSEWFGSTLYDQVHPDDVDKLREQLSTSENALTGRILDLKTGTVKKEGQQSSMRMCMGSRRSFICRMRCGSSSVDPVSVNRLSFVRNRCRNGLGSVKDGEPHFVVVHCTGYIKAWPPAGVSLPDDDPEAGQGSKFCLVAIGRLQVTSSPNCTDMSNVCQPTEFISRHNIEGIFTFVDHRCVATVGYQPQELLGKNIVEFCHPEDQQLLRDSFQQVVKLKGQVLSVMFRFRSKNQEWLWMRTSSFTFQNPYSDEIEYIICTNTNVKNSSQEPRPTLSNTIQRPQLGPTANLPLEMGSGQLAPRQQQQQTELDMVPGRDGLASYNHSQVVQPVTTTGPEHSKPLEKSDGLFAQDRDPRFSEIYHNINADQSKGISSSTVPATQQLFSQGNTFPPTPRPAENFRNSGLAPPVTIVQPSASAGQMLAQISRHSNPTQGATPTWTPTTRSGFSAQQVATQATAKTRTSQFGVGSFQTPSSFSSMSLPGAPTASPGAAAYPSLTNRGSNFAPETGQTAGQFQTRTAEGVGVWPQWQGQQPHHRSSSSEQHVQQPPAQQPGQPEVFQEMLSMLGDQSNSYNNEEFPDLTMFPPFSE

Row | Binder | percent of input co-immunoprecipitated [% input]
1 | thioredoxin fusion of D1 (human AhR aa 84-295) (domain or fragment, UniProt P35869 84-295, looked up) DVALKSSPTERNGGQDNCRAANFREGLNLQEGEFLLQALNGFVLVVTTDALVFYASSTIQDYLGFQQSDVIHQSVYELIHTEDRAEFQRQLHWALNPSQCTESGQGIEEATGLPQTVVCYNPDQIPPENSPLMERCFICRLRCLLDNSSGFLAMNFQGKLKYLHGQKKKGKDGSILPPQLALFAIATPLQPPSILEIRTKNFIFRTKHKLDF | ~10
2 | thioredoxin fusion of D3 (human AhR aa 191-295) (domain or fragment, UniProt P35869 191-295, looked up) EEATGLPQTVVCYNPDQIPPENSPLMERCFICRLRCLLDNSSGFLAMNFQGKLKYLHGQKKKGKDGSILPPQLALFAIATPLQPPSILEIRTKNFIFRTKHKLDF | ~10
3 | thioredoxin fusion of D2 (human AhR aa 84-192) (domain or fragment) not shown | ~10
4 | thioredoxin fusion of CΔ553 (human AhR aa 1-295) (domain or fragment, UniProt P35869 1-295, looked up) MNSSSANITYASRKRRKPVQKTVKPIPAEGIKSNPSKRHRDRLNTELDRLASLLPFPQDVINKLDKLSVLRLSVSYLRAKSFFDVALKSSPTERNGGQDNCRAANFREGLNLQEGEFLLQALNGFVLVVTTDALVFYASSTIQDYLGFQQSDVIHQSVYELIHTEDRAEFQRQLHWALNPSQCTESGQGIEEATGLPQTVVCYNPDQIPPENSPLMERCFICRLRCLLDNSSGFLAMNFQGKLKYLHGQKKKGKDGSILPPQLALFAIATPLQPPSILEIRTKNFIFRTKHKLDF | > 10
